B1: Azoarcus group I ribozyme (parent)
chain: GUGCCUUGCGCCGGGAAACCACGCAAGGGAUGGUGUCAAAUUCGGCGAAACCUAAGCGCCCGCCCGGGCGUAUGGCAACGCCGAGCCAAGCUUCGGCGCCUGCGCCGAUGAAGGUGUAGAGACUAGACGGCACCCACCUAAGGCAAACGCUAUGGUGAAGGCAUAGUCCAGGGAGUGGCGAAAGUCACACAAACCGG

From the RNAGym collection of RNA variant scans (doi:10.1093/molbev/msab373) come the findings set out here.

In the data set the parent is B1. In words: reverse-splicing fitness (ratio to wild type); higher = more active; in vitro selection; Mg2+ level not given. The essentials: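 An in vitro group I ribozyme library with randomized positions was T7-transcribed and gel-purified. In triplicate, 10 pmol RNA in EPPS pH 7.5 was reacted with 50 pmoles of a 30-nt RNA substrate for 1 h at 37 °C across several added MgCl2 levels (1–48 mM), then stopped with EDTA. Products were reverse transcribed from a substrate-complementary primer, PCR-amplified and sequenced (HiSeq 4000). Fitness is a variant's read proportion after selection over that before, normalised to wild type.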
As for C82A A120U A145U C169G U176C, the reverse-splicing fitness stood at 0.00254. For C82A A111U A120C A145C C150A C169G U176G, the reverse-splicing fitness is 0.0101. With C82U A111G A120C C169G U176G the figure was 0.00426.

With C82G A111C A120G A145C C150G C169G U176G, the reverse-splicing fitness came to 0.00499.

Take C82A A120U A145U C150A C169G: the reverse-splicing fitness stood at 0.00217. For C82U A120G A145G C150U C169A, the reverse-splicing fitness amounted to 0.0162. With C82G A111C A120C C169G U176C the figure was 0.0206; with C82G A111G A145G C150A, 0.0499; with C82A C150A C169G U176G, 0.0072.

In the case of C82A A111C A145C C150A C169A U176C, the reverse-splicing fitness was found to be 0.0113. To C82A A111U A120C A145G C169U U176C belongs 0.0156; to C82U A111G A145G C150U C169A U176C, 0.0167; to A120U C150U C169U U176A, 0.0605. With C82A C150U U176C the figure was 0.253; with C82A A111G A120C C169A U176G, 0.00575. C82G A120G A145G C150A C169A U176A: the reverse-splicing fitness is 0.0199. With A145U C150G U176C the figure was 0.351. With C82U A120U A145G C150G U176A the figure was 0.00711; with C82U A111G A120C A145G C169G U176C, 0.0179. In the case of C82U A111U A120G A145U C150A C169U, the reverse-splicing fitness turned out to be 0.0062.

With A111G A145G C150G C169U U176C, the reverse-splicing fitness was determined as 0.0172. To C82U A111G A120U C150U C169G U176A belongs 0.00733; to C82G A111U A120G A145U C150U C169G U176C, 0.017.

With A111G A145G C150G C169G U176G, the reverse-splicing fitness came to 0.00506. With C82A A111G A120G A145C C150A C169U U176G the figure was 0.00484; with C82G A111U A120C C150A C169U U176G, 0.00816. With C82U A111G A120G C150U U176A the figure was 0.00985. As to C82A A111G C150G C169A U176C, the reverse-splicing fitness came to 0.0122. A111G A120G A145G C169A U176C: the reverse-splicing fitness was 0.0746. With C82A A111G A120U A145C C150A C169A U176C the figure was 0.0024.

Regarding C82A A111U A120U A145U C150G C169G U176C, the reverse-splicing fitness was 0.00281. Consider A111C A120G A145C C150A C169U U176C, for which the reverse-splicing fitness came to 0.00924. With C82A A120U A145G C150G U176G the figure was 0.00433. To C82U A111C A120G A145C C150A U176C belongs 0.00967. With C82G A111U C150A C169G U176A the figure was 0.021; with C82U A111G A120C A145G C150G U176C, 0.00793. For C82A A111G A120G A145U C150G C169G, the reverse-splicing fitness came to 0.00677.

Turning to C82A A111U A145G C150U C169A U176A, the reverse-splicing fitness worked out at 0.016.

For the variant C82A A111G A120C C150A C169U U176G, the reverse-splicing fitness worked out at 0.00938. Turning to C82U A111G A120U A145G C150U C169G U176G, the reverse-splicing fitness amounted to 0.00189. With C82A A111C A120G A145G U176C the figure was 0.0226. With C82U A120C A145G C150G C169U the figure was 0.0108. Turning to A111U A120G A145U C150U C169A U176A, the reverse-splicing fitness is 0.0184. For the variant C82U A111U A145C C150A U176C, the reverse-splicing fitness worked out at 0.013. To A111G A145G C169U U176A belongs 0.0478; to C82U A111G A120U A145U C169A U176C, 0.0022; to A111C A120U A145U C150A C169U U176A, 0.00386. To A111C A120U A145U C150A C169U U176G belongs 0.00271. In the case of C82G A111U A120G A145C C150A, the reverse-splicing fitness came to 0.00696.

As for C82U A111C A120G A145G C150U C169G U176C, the reverse-splicing fitness was determined as 0.0159. As to C82G A111C C150U C169U, the reverse-splicing fitness stood at 0.0125. To C82G A120C A145C C150G C169U U176A belongs 0.00765. As for A111U A120C C150U C169U, the reverse-splicing fitness was found to be 0.0972. To C82U A111G A120C A145C C169U U176A belongs 0.0142. To C82G A111U A120C C150U U176C belongs 0.0248; to A111G A120C A145G C150U C169G U176G, 0.00469.

As for C82G A111C A120C A145G C150G C169U, the reverse-splicing fitness was 0.00874. To C82U A120U A145U C150G C169A U176A belongs 0.00252; to C82U A120G A145G C169G, 0.0254; to C82U A111G A120U A145C C150G C169G U176C, 0.00251.

On to C82U A111G A120G U176G, for which the reverse-splicing fitness is 0.00466. Take A111U A120C A145G C150U C169A U176G: the reverse-splicing fitness is 0.00555. To C82A A111G A120C A145G C150G C169G U176A belongs 0.0127; to C82U A111G A120U A145G C169U U176G, 0.00171. On to C82G A111G A120U A145G C150A U176G, for which the reverse-splicing fitness stood at 0.00391. To C82A A111G A145G C169U U176G belongs 0.00606.

On to C82U A111G A120C A145G C150G C169A U176A, for which the reverse-splicing fitness worked out at 0.0113. With C82A A111G A120U A145C C150A C169G U176C the figure was 0.00235. With C82G A111G A120U C150G C169A U176A the figure was 0.00788; with C82U A111U A120G C150U C169U U176C, 0.0158.

In the case of C82A A111U A120G A145U C150A C169A U176G, the reverse-splicing fitness turned out to be 0.00486. To C82U A111C C150A C169U U176C belongs 0.0169. In the case of A111C A120U A145G C169G U176C, the reverse-splicing fitness amounted to 0.0098. With A120C A145G C150G C169G U176G the figure was 0.00533; with C82U A120G A145G C150A C169U U176A, 0.0217. With C82G A111G A120G A145G C150A C169A U176G the figure was 0.00774; with C82U A120C A145U C150U U176C, 0.0537. With C82U A111C A120C C150G C169A U176C, the reverse-splicing fitness worked out at 0.00876. For C82G C150U U176A, the reverse-splicing fitness was 0.181. Take C82U A120U A145U C150A C169U U176C: the reverse-splicing fitness came to 0.002.

On to C82G A120G C169A, for which the reverse-splicing fitness was 0.0302. With C82G A111C A145G C150A U176A the figure was 0.0244; with A111U A120U C169U U176A, 0.0126.
